The record followed here is IntAct's records for PubMed 11801603.

To fix the notation:
B1: Baculoviral IAP repeat-containing protein 7 (Homo sapiens), Q96CA5 (parent)
chain: MGPKDSAKCLHRGPQPSHWAAGDGPTQERCGPRSLGSPVLGLDTCRAWDHVDGQILGQLRPLTEEEEEEGAGATLSRGPAFPGMGSEELRLASFYDWPLTAEVPPELLAAAGFFHTGHQDKVRCFFCYGGLQSWKRGDDPWTEHAKWFPSCQFLLRSKGRDFVHSVQETHSQLLGSWDPWEEPEDAAPVAPSVPASGYPELPTPRREVQSESAQEPGGVSPAEAQRAWWVLEPPGARDVEAQLRRLQEERTCKVCLDRAVSIVFVPCGHLVCAECAPGLQLCPICRAPVRSRVRTFLS
partner: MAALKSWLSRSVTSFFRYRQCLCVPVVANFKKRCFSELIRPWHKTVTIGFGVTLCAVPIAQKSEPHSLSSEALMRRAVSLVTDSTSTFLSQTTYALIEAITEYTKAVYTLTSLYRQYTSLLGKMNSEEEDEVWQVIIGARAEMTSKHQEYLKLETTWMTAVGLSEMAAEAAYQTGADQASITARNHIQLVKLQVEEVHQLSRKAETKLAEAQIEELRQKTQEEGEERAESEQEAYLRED
B2: Baculoviral IAP repeat-containing protein 7 (Homo sapiens), Q96CA5 (parent)
chain: B1 chain

One test covers variants of B1. To be noted: with dbloh_human DIABLO.
D138A: the “effect of a mutation on the interaction” value was “decreasing interaction”. On the same count and under the same terms, the value for D120A was “decreasing interaction”.

The variants in a further test derive from B2. To be noted: with casp9_human CASP9, P55211.
casp9_human CASP9, P55211, sequence (P55211 whole entry): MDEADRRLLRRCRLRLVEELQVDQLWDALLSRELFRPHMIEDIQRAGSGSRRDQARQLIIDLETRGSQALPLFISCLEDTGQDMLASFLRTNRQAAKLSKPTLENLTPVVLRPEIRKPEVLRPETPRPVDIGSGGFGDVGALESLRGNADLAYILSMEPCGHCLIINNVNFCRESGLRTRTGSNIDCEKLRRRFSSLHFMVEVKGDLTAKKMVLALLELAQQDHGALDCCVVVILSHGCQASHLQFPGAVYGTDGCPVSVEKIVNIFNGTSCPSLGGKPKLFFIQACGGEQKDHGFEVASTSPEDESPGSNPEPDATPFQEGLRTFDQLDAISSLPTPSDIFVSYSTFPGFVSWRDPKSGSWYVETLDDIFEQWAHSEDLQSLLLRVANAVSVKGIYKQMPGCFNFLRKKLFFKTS
D138A: the “effect of a mutation on the interaction” value is recorded as “decreasing interaction”.
